The values below come from article PMC4615246 (Nucleus, 2015).

The target of one experiment is T1, LacI-CFP-Nup50 (human, UniProt Q9UKX7 1-468).
T1 sequence: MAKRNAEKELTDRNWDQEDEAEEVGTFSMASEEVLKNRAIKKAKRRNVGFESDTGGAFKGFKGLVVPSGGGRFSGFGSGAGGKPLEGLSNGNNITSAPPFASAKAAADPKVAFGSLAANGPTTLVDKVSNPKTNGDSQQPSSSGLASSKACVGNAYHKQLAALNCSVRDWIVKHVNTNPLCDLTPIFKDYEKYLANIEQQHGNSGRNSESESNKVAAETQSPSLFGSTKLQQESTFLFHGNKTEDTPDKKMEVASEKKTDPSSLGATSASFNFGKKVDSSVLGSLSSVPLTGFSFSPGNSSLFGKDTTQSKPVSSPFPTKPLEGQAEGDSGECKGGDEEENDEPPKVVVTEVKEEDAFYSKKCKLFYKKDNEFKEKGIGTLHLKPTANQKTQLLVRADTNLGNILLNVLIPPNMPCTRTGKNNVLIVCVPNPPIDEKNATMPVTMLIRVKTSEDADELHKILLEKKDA
The experiment can be described thus: LacI/LacO array recruitment in cells.

In a further experiment the target is T2, LacI-CFP-Nup133 (human, UniProt Q8WUM0 1-1156).
T2 sequence: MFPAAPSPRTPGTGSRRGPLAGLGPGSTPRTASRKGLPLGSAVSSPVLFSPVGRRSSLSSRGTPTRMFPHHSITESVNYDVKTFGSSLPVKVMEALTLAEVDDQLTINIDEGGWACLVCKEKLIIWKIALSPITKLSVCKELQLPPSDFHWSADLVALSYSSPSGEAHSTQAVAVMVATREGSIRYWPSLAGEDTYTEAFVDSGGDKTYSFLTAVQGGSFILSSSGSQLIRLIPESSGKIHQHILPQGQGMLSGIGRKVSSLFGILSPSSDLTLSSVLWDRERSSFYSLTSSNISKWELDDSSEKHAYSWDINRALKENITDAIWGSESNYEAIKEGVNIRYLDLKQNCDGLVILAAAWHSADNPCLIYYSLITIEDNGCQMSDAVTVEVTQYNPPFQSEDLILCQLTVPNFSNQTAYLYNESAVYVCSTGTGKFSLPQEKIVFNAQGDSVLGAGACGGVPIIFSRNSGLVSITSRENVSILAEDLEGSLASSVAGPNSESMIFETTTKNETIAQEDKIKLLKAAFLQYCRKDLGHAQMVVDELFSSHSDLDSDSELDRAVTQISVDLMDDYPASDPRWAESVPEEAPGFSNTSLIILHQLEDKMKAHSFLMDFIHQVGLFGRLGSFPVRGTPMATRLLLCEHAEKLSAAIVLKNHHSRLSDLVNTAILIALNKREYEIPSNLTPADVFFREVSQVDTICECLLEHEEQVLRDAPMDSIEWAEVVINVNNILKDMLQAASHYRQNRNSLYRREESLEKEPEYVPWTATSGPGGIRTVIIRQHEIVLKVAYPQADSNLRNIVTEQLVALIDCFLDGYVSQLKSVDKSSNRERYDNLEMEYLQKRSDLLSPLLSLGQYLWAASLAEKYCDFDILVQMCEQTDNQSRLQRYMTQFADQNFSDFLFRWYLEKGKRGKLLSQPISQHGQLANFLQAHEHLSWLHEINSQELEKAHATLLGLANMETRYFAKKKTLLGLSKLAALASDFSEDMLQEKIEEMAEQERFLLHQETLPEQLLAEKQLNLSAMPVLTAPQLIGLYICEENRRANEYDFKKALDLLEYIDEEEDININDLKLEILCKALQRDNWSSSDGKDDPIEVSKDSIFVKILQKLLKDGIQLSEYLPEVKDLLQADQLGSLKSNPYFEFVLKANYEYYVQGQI
The experiment can be described thus: LacI/LacO array recruitment in cells.

B1: Nup160 (endogenous) (natural protein)
chain: MLHLSAAPPAPPPEVTATARPCLCSVGRRGDGGKMAAAGALERSFVELSGAERERPRHFREFTVCSIGTANAVAGAVKYSESAGGFYYVESGKLFSVTRNRFIHWKTSGDTLELMEESLDINLLNNAIRLKFQNCSVLPGGVYVSETQNRVIILMLTNQTVHRLLLPHPSRMYRSELVVDSQMQSIFTDIGKVDFTDPCNYQLIPAVPGISPNSTASTAWLSSDGEALFALPCASGGIFVLKLPPYDIPGMVSVVELKQSSVMQRLLTGWMPTAIRGDQSPSDRPLSLAVHCVEHDAFIFALCQDHKLRMWSYKEQMCLMVADMLEYVPVKKDLRLTAGTGHKLRLAYSPTMGLYLGIYMHAPKRGQFCIFQLVSTESNRYSLDHISSLFTSQETLIDFALTSTDIWALWHDAENQTVVKYINFEHNVAGQWNPVFMQPLPEEEIVIRDDQDPREMYLQSLFTPGQFTNEALCKALQIFCRGTERNLDLSWSELKKEVTLAVENELQGSVTEYEFSQEEFRNLQQEFWCKFYACCLQYQEALSHPLALHLNPHTNMVCLLKKGYLSFLIPSSLVDHLYLLPYENLLTEDETTISDDVDIARDVICLIKCLRLIEESVTVDMSVIMEMSCYNLQSPEKAAEQILEDMITIDVENVMEDICSKLQEIRNPIHAIGLLIREMDYETEVEMEKGFNPAQPLNIRMNLTQLYGSNTAGYIVCRGVHKIASTRFLICRDLLILQQLLMRLGDAVIWGTGQLFQAQQDLLHRTAPLLLSYYLIKWGSECLATDVPLDTLESNLQHLSVLELTDSGALMANRFVSSPQTIVELFFQEVARKHIISHLFSQPKAPLSQTGLNWPEMITAITSYLLQLLWPSNPGCLFLECLMGNCQYVQLQDYIQLLHPWCQVNVGSCRFMLGRCYLVTGEGQKALECFCQAASEVGKEEFLDRLIRSEDGEIVSTPRLQYYDKVLRLLDVIGLPELVIQLATSAITEAGDDWKSQATLRTCIFKHHLDLGHNSQAYEALTQIPDSSRQLDCLRQLVVVLCERSQLQDLVEFPYVNLHNEVVGIIESRARAVDLMTHNYYELLYAFHIYRHNYRKAGTVMFEYGMRLGREVRTLRGLEKQGNCYLAALNCLRLIRPEYAWIVQPVSGAVYDRPGASPKRNHDGECTAAPTNRQIEILELEDLEKECSLARIRLTLAQHDPSAVAVAGSSSAEEMVTLLVQAGLFDTAISLCQTFKLPLTPVFEGLAFKCIKLQFGGEAAQAEAWAWLAANQLSSVITTKESSATDEAWRLLSTYLERYKVQNNLYHHCVINKLLSHGVPLPNWLINSYKKVDAAELLRLYLNYDLLEEAVDLVSEYVDAVLGKGHQYFGIEFPLSATAPMVWLPYSSIDQLLQALGENSANSHNIALSQKILDKLEDYQQKVDKATRDLLYRRTL
Turning to B1, the “percent of transfected cells showing colocalization” value (“percent” below) in the experiment with LacI-CFP-Nup50 came out at 4%; with LacI-CFP-Nup133, 44%.

B2: Nup85 (endogenous) (natural protein)
chain: MEELDGEPTVTLIPGVNSKKNQMYFDWGPGEMLVCETSFNKKEKSEMVPSCPFIYIIRKDVDVYSQILRKLFNESHGIFLGLQRIDEELTGKSRKSQLVRVSKNYRSVIRACMEEMHQVAIAAKDPANGRQFSSQVSILSAMELIWNLCEILFIEVAPAGPLLLHLLDWVRLHVCEVDSLSADVLGSENPSKHDSFWNLVTILVLQGRLDEARQMLSKEADASPASAGICRIMGDLMRTMPILSPGNTQTLTELELKWQHWHEECERYLQDSTFATSPHLESLLKIMLGDEAALLEQKELLSNWYHFLVTRLLYSNPTVKPIDLHYYAQSSLDLFLGGESSPEPLDNILLAAFEFDIHQVIKECSIALSNWWFVAHLTDLLDHCKLLQSHNLYFGSNMREFLLLEYASGLFAHPSLWQLGVDYFDYCPELGRVSLELHIERIPLNTEQKALKVLRICEQRQMTEQVRSICKILAMKAVRNNRLGSALSWSIRAKDAAFATLVSDRFLRDYCERGCFSDLDLIDNLGPAMMLSDRLTFLGKYREFHRMYGEKRFADAASLLLSLMTSRIAPRSFWMTLLTDALPLLEQKQVIFSAEQTYELMRCLEDLTSRRPVHGESDTEQLQDDDIETTKVEMLRLSLARNLARAIIREGSLEGS
Consider B2, for which the “percent” value came out at 32% with LacI-CFP-Nup50 and 86% with LacI-CFP-Nup133.

B3: Nup62 (endogenous) (natural protein)
chain: MSGFNFGGTGAPTGGFTFGTAKTATTTPATGFSFSTSGTGGFNFGAPFQPATSTPSTGLFSLATQTPATQTTGFTFGTATLASGGTGFSLGIGASKLNLSNTAATPAMANPSGFGLGSSNLTNAISSTVTSSQGTAPTGFVFGPSTTSVAPATTSGGFSFTGGSTAQPSGFNIGSAGNSAQPTAPATLPFTPATPAATTAGATQPAAPTPTATITSTGPSLFASIATAPTSSATTGLSLCTPVTTAGAPTAGTQGFSLKAPGAASGTSTTTSTAATATATTTSSSSTTGFALNLKPLAPAGIPSNTAAAVTAPPGPGAAAGAAASSAMTYAQLESLINKWSLELEDQERHFLQQATQVNAWDRTLIENGEKITSLHREVEKVKLDQKRLDQELDFILSQQKELEDLLSPLEELVKEQSGTIYLQHADEEREKTYKLAENIDAQLKRMAQDLKDIIEHLNTSGAPADTSDPLQQICKILNAHMDSLQWIDQNSALLQRKVEEVTKVCEGRRKEQERSFRITFD
Regarding B3, the “percent” value in the experiment with LacI-CFP-Nup50 turned out to be 43%; with LacI-CFP-Nup133 it was 5%.
